Experimental data taken from patent publication US20250282879A1 (CILAG GMBH INTERNATIONAL, published 2025).
Positions count from the first letter of the chain named. Names and notes keep the numbering of the source. Like-named read-outs stand apart in the source and are kept apart here.

Tests used:
[1] = target: T1, Human IL-4R-Fc (human, UniProt P24394 26-232); assay: SPR, hIL-4R-Fc captured, scFv analyte
T1 construct: also called human IL-4R (scFv SPR, capture setup); not shown: Fc part
Protocol: (§1) Affinity of the optimized anti-IL-4R scFvs PRO1898 and PRO1899 to human IL-4R was determined by SPR analysis on a T200 device (Biacore, GE Healthcare), as described above in section 1.2.2. The scFvs were measured using a dose response multi-cycle kinetic assay with seven analyte concentrations ranging from 0.12 to 90 nM diluted in running buffer. Obtained sensorgrams were fitted using a 1:1 binding model.

[2] = target: T2, cynomolgus IL-4R-Fc (cynomolgus monkey (Macaca fascicularis), UniProt A0A2K5V580 33-239); assay: SPR, capture setup, cynomolgus IL-4R-Fc captured
T2 construct: also called cynomolgus IL-4R capture setup; not shown: Fc part
Protocol: as §1
Affinity of the optimized anti-IL-4R scFvs PRO1898 and PRO1899 to cynomolgus IL-4R was measured using the same setup as for the analysis of human IL-4R affinities, with the difference that cynomolgus IL-4R-Fc was captured instead of human IL-4R-Fc, as described above in section 1.2.2.

[3] = target: T3, human IL-4R (form not stated) (human, UniProt P24394 26-232, limits assumed); assay: competition ELISA, hIL-4/IL-4R
T3 construct: whole entry named; also called hIL-4R
Protocol: Potency of the optimized anti-IL-4R scFvs PRO1898 and PRO1899 scFvs was determined using a competitive ELISA. The potency of each scFv to inhibit the interaction between human IL-4 and human IL-4R was assessed by ELISA as described in section 1.2.2. Similarly, to the stat-6 reporter gene assay, individual IC₅₀ values on each plate were calibrated against the IC₅₀ of the reference molecule dupilumab.

[4] = target: T4, human IL-4R on cells (HEK-Blue IL-4/IL-13 cells, human PBMC, human whole blood) (human, UniProt P24394 26-825); assay: cell-based or functional assay
[5] = target: T5, marmoset IL-4R ECD (marmoset (Callithrix jacchus), UniProt Q0PIT7 26-232); assay: SPR, direct setup, marmoset IL-4R ECD immobilized
T5 construct: immobilized directly on the sensor chip; also called marmoset monkey IL-4R

[6] = target: T1, Human IL-4R-Fc; assay: SPR, hIL-4R-Fc captured, scFv analyte; remark: listed apart in the source
[7] = target: T4, human IL-4R on cells (HEK-Blue …); assay: cell-based or functional assay; remark: listed apart in the source
[8] = target: T6, recombinant human IL-4R protein (ECD with His Tag, Sino Biological) (human, UniProt P24394 26-232); assay: SPR, Morrison captured via anti-human IgG-Fc, IL-4R ECD-His analyte
T6 construct: extracellular domain; bought; also called human IL-4R ECD; not shown: His Tag
Protocol: (§2) Binding kinetics (including affinity) of the bispecific Morrison-H (PRO2198, PRO2199) and Morrison-L (PRO2206, PRO2207) molecules to recombinant human IL-4R protein (ECD with His Tag, Sino Biological) were determined by SPR analysis on a T200 device (Biacore, Cytiva). In this SPR experiment, Morrison molecules were captured via an anti-human IgG-Fc antibody (Human Antibody Capture Kit; Biacore, Cytiva) covalently immobilized to a carboxylmethylated dextran surface (CM5 sensorchip; Biacore, Cytiva) and a titration series of human IL-4R ECD was injected as analyte. After each analyte injection cycle, the sensor chip was regenerated (MgCl₂), and new Morrison antibody was subsequently re-captured. […] The apparent dissociation (kd) and association (kₐ) rate constants and the apparent dissociation equilibrium constant (KD) were calculated with the Biacore analysis software (Biacore Evaluation software Version 3.2, Cytiva) using one-to-one Langmuir binding model and quality of the fits was monitored based on Chi2 and U-value, which are measures for the quality of the curve fitting. The binding level was calculated as the maximum stability binding achieved normalized to the theoretical Rmax. Cross-reactivity to cynomolgus monkey IL-4R was measured using the same setup as for the analysis of human IL-4R kinetics, with the difference that recombinant cynomolgus monkey IL-4R (ECD with His-tag, Acro Biosystems) protein was used as analyte instead of human IL-4R.

[9] = target: T7, recombinant cynomolgus monkey IL-4R (ECD with His-tag, Acro Biosystems) (cynomolgus monkey, UniProt A0A2K5V556 26-232); assay: as above
T7 construct: bought; also called cynomolgus IL-4R
Protocol: as §2

[10] = target: T8, recombinant human IL-31 protein (Peprotech) (human, UniProt Q6EBC2 24-164); assay: cell-based or functional assay
T8 sequence (looked up): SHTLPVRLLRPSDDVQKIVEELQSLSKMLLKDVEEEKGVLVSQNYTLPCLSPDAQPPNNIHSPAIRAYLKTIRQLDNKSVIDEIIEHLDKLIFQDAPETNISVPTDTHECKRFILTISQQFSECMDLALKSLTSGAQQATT

[11] = target: T4, human IL-4R on cells (HEK-Blue …); assay: cell-based or functional assay; remark: listed apart in the source
[12] = target: T4, human IL-4R on cells (HEK-Blue …); assay: cell-based or functional assay; remark: listed apart in the source
[13] = target: T4, human IL-4R on cells (HEK-Blue …); assay: cell-based or functional assay; remark: listed apart in the source
[14] = target: T9, human IL-4R on transfected HEK293T cells (human, UniProt P24394 26-825); assay: flow cytometry, transfected HEK293T cells
T9 construct: whole, on cells; also called human IL-4R-expressing HEK293T cells; not shown: V5 Tag fused to the N-terminus of the expression construct
Description: (§3) To test binding of the Morrison-H and Morrison-L antibodies PRO2198, PRO2199, PRO2206 and PRO2207 to human or cynomolgus IL-4R-expressing HEK293T cells, HEK293T cells were transfected with human and cynomolgus IL-4R plasmids and mock plasmid using Lipofectamine3000. Binding of an antibody targeting V5 Tag, which is fused to the N-terminus of human and cynomolgus IL-4R expression constructs, would confirm successful expression of both targets and was thus used as a positive control for plasma membranous binding. The Morrison-H molecule PRO2077 was used as negative control for cynomolgus IL-4R binding since this molecule had not shown any cross-reactivity to cynomolgus IL-4R (see section 5.3.).
(§4) 50,000 transfected HEK293T cells per well were seeded in a 96-well plate. 5-fold serial dilutions of the Morrison-H and Morrison-L antibodies PRO2198, PRO2199, PRO2206 and PRO2207 and of the control molecule PRO2077, which is not cross-reactive to cynomolgus IL-4R, were added at concentrations ranging from 5,000 to 0.32 ng/ml to the plates and incubated for 60 min at 4° C. on a shaker. Supernatants were removed and detection reagent was added for flow cytometry analysis. The geometric mean of the APC fluorescence intensity of single cells was calculated.

[15] = target: T10, cynomolgus IL-4R on transfected HEK293T cells (cynomolgus monkey, UniProt A0A2K5V580 33-832); assay: flow cytometry, transfected HEK293T cells
T10 construct: whole, on cells; also called cynomolgus IL-4R-expressing HEK293T cells; not shown: V5 Tag fused to the N-terminus of the expression construct
Description: as §3, §4

[16] = target: recombinant cynomolgus monkey IL-31 (ECD with His Tag, Sino Biological) (cynomolgus monkey); assay: cell-based or functional assay
[17] = target: T8, recombinant human IL-31 protein …; assay: cell-based or functional assay; remark: listed apart in the source

T7 sequence (A0A2K5V556 entry or part of it limits assumed): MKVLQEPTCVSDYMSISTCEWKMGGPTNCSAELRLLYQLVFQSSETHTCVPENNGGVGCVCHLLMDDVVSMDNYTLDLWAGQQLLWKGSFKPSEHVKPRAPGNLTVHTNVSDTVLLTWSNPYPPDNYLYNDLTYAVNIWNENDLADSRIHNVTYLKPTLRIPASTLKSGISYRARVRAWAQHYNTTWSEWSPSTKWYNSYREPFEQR
T5 sequence (Q0PIT7 entry or part of it limits assumed): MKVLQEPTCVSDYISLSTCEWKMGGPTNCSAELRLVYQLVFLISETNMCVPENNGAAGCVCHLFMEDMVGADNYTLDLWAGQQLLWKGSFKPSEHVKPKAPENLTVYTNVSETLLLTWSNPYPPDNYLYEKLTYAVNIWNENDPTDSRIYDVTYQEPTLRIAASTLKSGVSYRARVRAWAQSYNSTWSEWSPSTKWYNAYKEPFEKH
T10 sequence (A0A2K5V580 entry or part of it): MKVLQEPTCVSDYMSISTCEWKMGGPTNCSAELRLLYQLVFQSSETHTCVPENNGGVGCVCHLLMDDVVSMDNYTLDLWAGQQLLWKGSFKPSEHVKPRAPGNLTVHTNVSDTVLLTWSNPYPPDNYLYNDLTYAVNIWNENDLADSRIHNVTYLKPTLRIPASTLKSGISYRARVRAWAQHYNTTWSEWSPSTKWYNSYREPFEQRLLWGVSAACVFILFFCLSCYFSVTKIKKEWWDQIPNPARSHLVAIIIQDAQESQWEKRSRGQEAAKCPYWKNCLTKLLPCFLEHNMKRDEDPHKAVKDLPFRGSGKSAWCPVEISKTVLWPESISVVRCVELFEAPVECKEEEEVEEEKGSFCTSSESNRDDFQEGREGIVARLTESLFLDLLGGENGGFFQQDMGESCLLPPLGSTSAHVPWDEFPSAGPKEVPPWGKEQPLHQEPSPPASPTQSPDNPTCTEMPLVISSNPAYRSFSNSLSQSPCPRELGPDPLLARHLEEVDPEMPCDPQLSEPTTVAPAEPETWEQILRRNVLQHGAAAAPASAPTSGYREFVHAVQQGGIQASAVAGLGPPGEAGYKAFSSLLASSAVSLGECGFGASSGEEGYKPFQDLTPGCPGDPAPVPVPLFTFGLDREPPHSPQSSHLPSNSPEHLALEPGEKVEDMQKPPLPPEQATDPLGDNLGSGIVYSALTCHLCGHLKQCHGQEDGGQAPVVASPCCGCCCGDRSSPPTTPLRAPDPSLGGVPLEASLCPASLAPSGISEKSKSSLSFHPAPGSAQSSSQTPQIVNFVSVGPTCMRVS

B1: PRO1898 (scFv, V domains shown)
VH: EVQLVESGGGLVQPGGSLRLSCAASGFSSSSAHYMCWVRQAPGKGLEWIGCIYAGSRGSTYYASWAKGRFTISRDNSKNTVYLQMNSLRAEDTAVYYCARAAFVNRGVSWIWPYYFSLWGQGTLVTVSS
VL: DIQMTQSPSSLSARVGDRVTITCQASEDIESYLAWYQQKPGKAPKLLIYRASTLAYGVPSRFSGSGSGRDFTLTISSLQPEDFATYYCLGSSYSTGSNIFGTGTKVTVLG
notes: scFv; VL entry ends with LCDR3 (no FR4); also called 44-34-C10-sc08
Work on B1 yielded a Kd [1] of 0.00791 nM, a koff [1] of 1.7e-05 s⁻¹ and a kon [1] of 2.15e+06 M⁻¹ s⁻¹. The Kd [2] was 0.0908 nM, the koff [2] was 0.000109 s⁻¹ and the kon [2] was 1.2e+06 M⁻¹ s⁻¹. It also gave an IC50 [3] of 3.41 ng/mL.

B2: PRO1899 (scFv, V domains shown)
VH: EVQLVESGGGRVQPGGSLRLSCAASGFSSSSAHYMCWVRQAPGKGLEWIGCIYAGSRGSTYYASWAKGRFTISKASSTTVYLQMNSLRAEDTATYYCARAAFVNRGVSWIWPYYFSLWGQGTQVTVSS
VL: B1 VL with R14S, R69T
notes: scFv; VL entry ends with LCDR3 (no FR4); also called 44-34-C10-sc09
B2 showed a Kd [1] of 0.00692 nM, a koff [1] of 2.04e-05 s⁻¹ and a kon [1] of 2.95e+06 M⁻¹ s⁻¹. For the same binder, the Kd [2] was 0.012 nM, the koff [2] was 0.00014 s⁻¹ and the kon [2] was 1.1e+07 M⁻¹ s⁻¹. The IC50 [3] was 2.98 ng/mL.

B3: PRO1535 (scFv)
chain: DIQMTQSPSSLSASVGDRVTITCQASEDIESYLAWYQQKPGKPPKLLIYRASTLAYGVPSRFSGSGSGTDFTLTISSLQPEDFATYYCLGSSYSTGSNIFGTGTKVTVLGGGGGSGGGGSGGGGSGGGGSESQLVESGGGLVQPGGSLRLSCAASGFSSSSAHYMCWVRQAPGKGLEWIACIYAGSRGSTYYASWAKGRFTISKDNSKNTVYLQMNSLRAEDTAVYFCARAAFVNRGVSWIWPYYFSLWGQGTLVTVSS
In the case of B3, the “IC50, neutralization of hIL-4-induced signaling, stat-6 reporter gene assay” value [4] is reported as 1.15 ng/mL, the “IC50, neutralization of hIL-13-induced signaling, stat-6 reporter gene assay” value [4] is reported as 2.3 ng/mL and the Kd [5] is reported as 0.787 nM. The koff [5] was 0.00254 s⁻¹, the kon [5] was 3.23e+06 M⁻¹ s⁻¹ and the Kd [6] was 0.0199 nM. It also gave a koff [6] of 5.42e-05 s⁻¹ and a kon [6] of 2.72e+06 M⁻¹ s⁻¹.

B4: PRO2199 (bispecific antibody, human IgG4 S228P, kappa)
light: DIQMTQSPSSLSASVGDRVTITCQASEDIESYLAWYQQKPGKAPKLLIYRASTLAYGVPSRFSGSGSGTDFTLTISSLQPEDFATYYCLGSSYSTGSNIFGQGTKVEIKRTVAAPSVFIFPPSDEQLKSGTASVVCLLNNFYPREAKVQWKVDNALQSGNSQESVTEQDSKDSTYSLSSTLTLSKADYEKHKVYACEVTHQGLSSPVTKSFNRGEC
heavy: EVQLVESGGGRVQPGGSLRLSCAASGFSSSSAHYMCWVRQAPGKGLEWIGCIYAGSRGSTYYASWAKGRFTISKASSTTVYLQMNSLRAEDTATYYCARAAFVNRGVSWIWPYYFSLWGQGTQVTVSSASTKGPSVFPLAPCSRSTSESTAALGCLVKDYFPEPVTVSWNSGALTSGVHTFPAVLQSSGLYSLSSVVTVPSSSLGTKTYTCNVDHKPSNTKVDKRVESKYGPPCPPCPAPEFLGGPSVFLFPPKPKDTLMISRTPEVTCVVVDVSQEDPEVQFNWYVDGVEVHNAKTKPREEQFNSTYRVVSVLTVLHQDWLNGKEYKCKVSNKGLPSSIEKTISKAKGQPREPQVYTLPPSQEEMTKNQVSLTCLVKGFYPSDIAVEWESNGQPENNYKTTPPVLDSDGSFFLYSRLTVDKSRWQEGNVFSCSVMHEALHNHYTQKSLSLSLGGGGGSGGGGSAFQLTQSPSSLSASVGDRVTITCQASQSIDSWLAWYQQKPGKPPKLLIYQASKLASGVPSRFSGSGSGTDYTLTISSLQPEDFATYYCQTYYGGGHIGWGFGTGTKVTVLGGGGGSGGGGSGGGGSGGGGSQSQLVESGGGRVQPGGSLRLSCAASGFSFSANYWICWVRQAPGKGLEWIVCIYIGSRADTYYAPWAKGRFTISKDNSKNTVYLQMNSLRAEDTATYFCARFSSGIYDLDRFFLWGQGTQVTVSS
notes: IgG4 (S228P) Morrison-H; also called Morrison-H; MorrH
B4 was tested, and the “Mean IC50, human IL-4-induced signaling, stat-6 reporter gene assay” value [7] was 0.0115 nM, the Kd [8] was 0.197 nM and the koff [8] was 5.76e-05 s⁻¹. For the same binder, the kon [8] was 293000 M⁻¹ s⁻¹, the Kd [9] was 0.0351 nM and the koff [9] was 3.44e-05 s⁻¹. For the same binder, the kon [9] was 980000 M⁻¹ s⁻¹, the “Mean IC50, human IL-31-induced signaling, IL-31RA/OSMR dimerization assay” value [10] was 0.142 nM and the “IC50, IL-4-induced TARC secretion in human whole blood” value [11] was less than 0.5 nM. The “IC50 (single analysis), human IL-13-induced signaling, stat-6 reporter gene assay” value [12] was 0.0113 nM, the “IC50, IL-4-induced CD23 expression, memory B cells” value [13] was 2.53 nM and the “IC50, IL-4-induced CD23 expression, monocytes (blood donor 1)” value [13] was 0.0697 nM. The “IC50, IL-4-induced CD23 expression, naive B cells” value [13] was 1.1 nM, the EC50 [14] was 0.85 nM and the EC50 [15] was 1.78 nM. For the same binder, the “IC50, cynomolgus IL-31-induced IL-31RA/OSMR dimerization (RLU) [table under the graph]” value [16] was 1.21 nM and the “IC50 (read off the curve), human IL-31-induced IL-31RA/OSMR dimerization, with an excess of IL-4R extracellular domain in the medium” value [17] was roughly 0.1 nM.
